B1: Calcium and integrin-binding protein 1 (Homo sapiens), Q99828-1 (parent)
chain: MGGSGSRLSKELLAEYQDLTFLTKQEILLAHRRFCELLPQEQRSVESSLRAQVPFEQILSLPELKANPFKERICRVFSTSPAKDSLSFEDFLDLLSVFSDTATPDIKSHYAFRIFDFDDDGTLNREDLSRLVNCLTGEGEDTRLSASEMKQLIDNILEESDIDRDGTINLSEFQHVISRSPDFASSFKIVL

Assays:
Details in all cases: with psn2_human PSEN2, P49810
[1] = variants of: B1
[2] = variants of: B1; remark: listed apart in the source
[3] = variants of: B1; remark: listed apart in the source

effect of a mutation on the interaction [1] | effect of a mutation on the interaction [2] | effect of a mutation on the interaction [3] | Variant
disrupting interaction strength | decreasing interaction | – | D127N
disrupting interaction strength | decreasing interaction | – | D127N;E172Q
disrupting interaction strength | decreasing interaction | decreasing interaction strength | E172Q

From IntAct's records for PubMed 15475008
